Measured values as given in PMC2879517 (Nucleic Acids Research, 2010).

Experiments:
crystal structure = target: the molecule itself; assay: crystal structure
SEC = target: the molecule itself; assay: SEC

Protein | stoichiometry N (crystal structure) | stoichiometry N (SEC)
DdrB from D. geothermalis labeled with SeMet (natural protein, selenomethionine (SeMet) in place of methionine) MLHIEFITDLGAKVTVDVESADKLLDVQRQYGRLGWTSGEVPVGGYQFPLENEPDFDWSLIGARKWTNPEGEEMILHRGHAYRRRELEAVDSRKMKLPAAVKYSRGAKNTDPEHVREKADGEFEYVTLAIFRGGKRQERYAVPGSNRPQAGAPARSAATRAQGARPGAVAVQDEETPF | 5 | 
DdrB (DNA damage response B) from D. geothermalis, native, untagged (natural protein) MLHIEFITDLGAKVTVDVESADKLLDVQRQYGRLGWTSGEVPVGGYQFPLENEPDFDWSLIGARKWTNPEGEEMILHRGHAYRRRELEAVDSRKMKLPAAVKYSRGAKNTDPEHVREKADGEFEYVTLAIFRGGKRQERYAVPGSNRPQAGAPARSAATRAQGARPGAVAVQDEETPF |  | 5
